Measured values: paper PMC6051995

Molecular target: vinculin (UniProt P18206)
Assay: FLAG IP, LC-MS/MS spectral counting
Details: reference: FLAG-EZH2 wild type; sites T367

binding against the reference: weaker
Substance: EZH2 (from UniProt Q15910) FLAG-EZH2 T367A
